# Reference: US20160040149A1, “Compositions Having Dicamba Decarboxylase Activity and Methods of Use” (priority 2013, published 2016)
# B1: 1 (protein, listed as Rhizobium sp.)
# chain: MAQGKVALEEHFAIPETLQDSAGFVPGDYWKELQHRLLDIQDTRLKLMDAHGIETMILSLNAPAVQAIPDRRKAIEIARRANDVLAEECAKRPDRFLAFAALPLQDPDAATEELQRCVNDLGFVGALVNGFSQEGDGQTPLYYDLPQYRPFWGEVEKLDVPFYLHPRNPLPQDSRIYDGHPWLLGPTWAFAQETAVHALRLMASGLFDEHPRLNIILGHMGEGLPYMMWRIDHRNAWVKLPPRYPAKRRFMDYFNENFHITTSGNFRTQTLIDAILEIGADRILFSTDWPFENIDHASDWFNATSIAEADRVKIGRTNARRLFKLDGA
# Columns and labels:
# [1] = Dicamba decarboxylase activity / product analysis with purified His-tag protein (14C assay and product detection of Example 1); assay type: biochemical; conditions: statement of the description
# Protocol: To obtain purified protein for activity assays, IPTG-induced cells were harvested by centrifugation at 7,000 rpm for 10 mins Cell pellet from 50 mL of cell culture was frozen and thawed twice and then lysed in 8004 lysis buffer consisting of 50 mM potassium phosphate buffer (pH7.0), 50 μM ZnSO4, 5% EG, 50 mM KCl, 1 mM DTT, 0.2 mg/ml lysozyme, 1/200 protease inhibitor cocktail (EMD set3, EDTA free), and 1/2,000 endonuclease. Lysate was then centrifuged at 13,000 rpm for 45 min at 4° C. Supernatant was loaded onto 200 μL Ni-NTA columns pre-equilibrated with 10 mM His Buffer containing 25 mM potassium phosphate buffer pH7, 50 μM ZnSO4, 5% EG, 200 mM KCl, and 10 mM histidine. The columns were let sit at 4° C. until the entire supernatant passed through. Each column was then washed with 200 ul 10 mM His Buffer twice and then 4 times with 800 ul loading buffer consisting of 25 mM potassium phosphate buffer pH7, 50 μM ZnSO4, 5% EG, 200 mM KCl. Protein was eluted with 1504 of Elution Buffer consisting of 25 mM potassium phosphate buffer pH7, 50 μM ZnSO4, 5% EG, 100 mM KCl, 100 mM histidine, 10% glycerol. The protein concentration was measured by Bradford assay. Purified protein was used for dicamba decarboxylase activity measurement as described in Example 1. Enzyme kinetic characterization of selected dicamba decarboxylases was determined through GC/MS measurement of 2,5-DCP or PEPC coupled assay as described in Example 1.
# [2] = GC/MS detection of decarboxylation product 2,5-DCA (toluene trapping or head space); assay type: biochemical; conditions: purified protein, dicamba substrate
# Protocol: Alternatively, dicamba decarboxylase activity can be monitored by measuring decarboxylation products other than CO2 using product detection methods. The decarboxylation product of dicamba, 2,5-dichloro anisole or 2,5-DCA (FIG. 1C), is a volatile compound with a flash point of 21° C. To capture this volatile compound for detection, 140 ul of toluene solution is added on top of 1 ml reaction mixture to form a trapping layer in a 1.5 ml eppendorf tube. […] The reaction is kept still at room temperature overnight before being vortex mixed and centrifuged at 14,000 rpm for 15 minutes. The top toluene phase is carefully removed using a micropipette and transferred into a 12×32 mm polypropylene vial (Vial 11 mm) from MicroLiter Analytical Supplies, Inc. (catalog number 11-5300-100). The vial is sealed with Crimp seal (11 mm with FEP/Nat Rubber) from MicroLiter Analytical Supplies, Inc. (catalog number 11-0020A) using a E-Z Crimper™ 11 mm from Wheaton Inc. lul of the toluene mixture is taken from the sealed vials and injected in splitless mode into a GC/MS system for sample analysis (Agilent GC/MS system with a 6890A GC, a 5973N MSD and a CTC CombiPAL auto-sampler or with a 7890A GC, a 5975C MSD and an Agilent GC Sampler 80 auto-sampler). The GC parameters are: Agilent DB-5MS column (30 m length, 0.25 mm diameter, 0.25 um film) or equivalent; The GC inlet temperature, 250° C.; Carry gas, helium in constant flow mode (1.2 mL/min); The GC oven temperature program, initial temperature at 70° C. for 1 min, ramping to 200° C. at 15° C./min, and then ramping to 250° C. at 30° C./min. MS data acquisition is done in SIM (selected ion monitoring) mode, monitoring the positive ion at M/Z 176 for the molecular ion of […]. The solvent delay for MS acquisition is set at 4 min. Another method for detection of 2,5-DCA is a head-space GC/MS method. Briefly, reaction mixtures in 500 ul reaction volume are prepared in 1.5 ml 12×32 mm glass vials (Microliter Analytical Supplies, Cat#11-1200) for head space analysis. Glass vials are sealed with magnetic cap from MicroLiter Analytical Supplies, Inc. (catalog number 11-0030AT) using a E-Z Crimper™ 11 mm from Wheaton Industries Inc. The reaction is carried out at room temperature for various amount of time and stopped by heating at 95° C. for 5 min. The reaction vial is transferred to a agitator for incubation at 80° C. for 5 min at 500 rpm. With a syringe preheated at 80° C., 1000 uL of head space is injected with sample fill speed at 100 uL/sec. GC/MS parameters for headspace analysis are the same as for liquid sample analysis.
# [3] = LC-MS/MS detection of 4-chloro-3-methoxy phenol; assay type: biochemical; conditions: purified protein, dicamba substrate
# Protocol: The decarboxylated and chloro hydrolyzed product, 4-chloro-3-methoxy phenol (FIG. 1D), is measured using a LC-MS/MS analytical procedure. […] 10 ul is removed from the reaction mixture and mixed with 90 ul pre-chilled methanol followed by centrifugation at 14,000 rpm for 15 min at 4° C. 10 ul of the supernatant is then transferred into 170 ul ddH2O to achieve 5% methanol solution for injection. 50 ul of the prepared sample is injected into a 4000 Q Trap LC-MS/MS system for sample analysis. LC-MS/MS parameters are: Mobile Phase A, 2 mM ammonium acetate in water; Mobile Phase B, 2 mM ammonium acetate in methanol; Column, Aquasil, 100×2.1 mm, 3 μm, C18 column; Flow Rate, 0.6 ml/min. The MS/MS fragment 157/142 which is common to 4-chloro-3-methoxy phenol, 2-chloro-5-methoxy phenol, and 3-chloro-5-methoxy phenol is monitored at a retention time of 2.88 min.
# [4] = GC/MS detection of 2,5-DCP; assay type: biochemical; conditions: purified protein, dicamba substrate
# Protocol: The decarboxylated and demethylated product of dicamba, 2,5-dichloro phenol or 2,5-DCP (FIG. 1E) is measured using a GC/MS analytical procedure with either liquid injection after liquid/liquid extraction using toluene as the extraction solvent or gas injection using head space method. The head space sample analysis is carried out on an Agilent GC/MS system with a 6890A GC, a 5973N MSD and a CTC CombiPAL auto-sampler or with a 7890A GC, a 5975C MSD and an Agilent GC Sampler 80 auto-sampler with Phenomenex ZB-MultiResidue-1 column (30 m length, 0.25 mm diameter, 0.25 um film) or equivalent. GC/MS parameters are: GC inlet temperature, 200° C.; Carry gas, helium in constant flow mode (1.2 mL/min); Oven temperature program, 70° C. for 1 min and then ramp to 275° C. at 40° C./min. Protein reactions are carried out in a 1.5 ml 12×32 mm glass vials for head space analysis as described previously. The reaction vial is transferred to a agitator for incubation at 90° C. for 4 min at 500 rpm. With a syringe preheated at 110° C., 1000 uL of head space is injected with sample fill speed at 100 uL/sec. A 2-mm diameter liner is used in sample inlet. The MS data acquisition is done in SIM (selected ion monitoring) mode. The positive ion at M/Z 162 for the molecular ion of 2,-5-DCP is monitored at retention time of 4.06 min. Solvent delay for MS acquisition is set at 3 min. […]
# [5] = Saturation mutagenesis of SEQ ID NO:109: dicamba decarboxylation activity of point mutants (CO2 released), fold of backbone (Tables 7, 8, Megatable 1); conditions: decarboxylation activity (CO2 released) of point mutant vs unmutated backbone protein; backbone SEQ ID NO: 109
molecule,measurement,setting,value
B1,dicamba decarboxylase activity,[1],native dicamba decarboxylase activity
same,"relative amount of 2,5-DCA compared to CO2 formation (100%)",[2],< 1%
same,relative amount of 4-chloro-3-methoxy phenol compared to CO2 formation (100%),[3],< 10%
same,"relative amount of 2,5-DCP compared to CO2 formation (100%)",[4],> 80%
same,Fold Activity,[5],1.2 fold
